Assay results: patent US10286078B2, “Modified therapeutic agents and compositions thereof” (THE CALIFORNIA INSTITUTE FOR BIOMEDICAL RESEARCH, priority 2013, dated 2019)
pEC50: −log10 of the molar value. Like-named read-outs stand apart in the source and are kept apart here. Where no end group is shown, it is not given here.

Legend:
human Nav1.7 = biological target: T1, human Nav1.7 (Homo sapiens, UniProt Q15858); assay: NaV 1.7 current measurement on IonFlux HT; assay type: cell-based; conditions: HEK293 cells overexpressing alpha and beta-1 subunits of human Nav1.7
T1 construct: host or cells: HEK293
Procedure: Toxin-550 peptides were assayed on the IonFlux HT using standard running conditions for measurement of NaV 1.7 current. Briefly, HEK293 cells overexpressing the alpha and beta-1 subunits of human Nav1.7 (PrecisION, Millipore) were trypsinized, brought up in serum-free media and allowed to shake at room temperature for 30 minutes. Compounds were diluted into standard extracellular Ringer's solution (ECS) at desired concentration. Cells were washed once with ECS and then brought up in ECS at a concentration of 4 million cells/mL. IonFlux HT plate was set up according to standard protocols.
NaV 1.7 current was measured on the IonFlux according to the following voltage step protocol:
1. The cells were held at −90 mV with a period of 10 seconds.
2. The cells were stepped from −90 mV to −120 mV for 100 ms. • a. then to −10 mV for 30 ms and • b. then back to −90 mV for 30 ms.
Baseline current was allowed to stabilize for 5 minutes, then a control baseline (ECS only) was established. Compound was applied for 20 minutes, and then a positive control (peptide NaV1.7 blocker) was applied.
Leak subtraction was then performed on the data and the resulting currents are analyzed as follows: • 1. […] For a given time (e.g. 10 minutes post-compound addition), percent block was calculated as I/Imax.

[1] = In vivo pharmacokinetic (PK) study for half-life extension; conditions: mouse, plasma, mice
Procedure: Lipid conjugated relaxin or other therapeutic agents are dosed in mice using sc, po, iv dosing. Plasma levels of TA are determined by ms, lgr7, glp1r and/or gcgr activation at different time points (e.g., i.v. PK 5 min, 0.5 h, 1 h, 2 h 4 h, 8 h, 24 h, 48 h, 96 h & 144 h and s.c. PK. 15 min, 0.5 h, 1 h, 2 h, 4 h, 8 h, 24 h, 48 h, 96 h and 144 h). Select PK data are shown in FIGS. 11, 12, and 15, and Table 2.

LGR7 = biological target: T2, LGR7 (Homo sapiens, UniProt Q9HBX9); assay: LGR7 CRE-Luc reporter gene assay (relaxin bioactivity); assay type: cell-based; conditions: HEK293T cells expressing LGR7 and CRE-Luc; EC50 after non-linear curve fitting
T2 construct: expressed in transfected cells
T2 sequence (Q9HBX9 1-757): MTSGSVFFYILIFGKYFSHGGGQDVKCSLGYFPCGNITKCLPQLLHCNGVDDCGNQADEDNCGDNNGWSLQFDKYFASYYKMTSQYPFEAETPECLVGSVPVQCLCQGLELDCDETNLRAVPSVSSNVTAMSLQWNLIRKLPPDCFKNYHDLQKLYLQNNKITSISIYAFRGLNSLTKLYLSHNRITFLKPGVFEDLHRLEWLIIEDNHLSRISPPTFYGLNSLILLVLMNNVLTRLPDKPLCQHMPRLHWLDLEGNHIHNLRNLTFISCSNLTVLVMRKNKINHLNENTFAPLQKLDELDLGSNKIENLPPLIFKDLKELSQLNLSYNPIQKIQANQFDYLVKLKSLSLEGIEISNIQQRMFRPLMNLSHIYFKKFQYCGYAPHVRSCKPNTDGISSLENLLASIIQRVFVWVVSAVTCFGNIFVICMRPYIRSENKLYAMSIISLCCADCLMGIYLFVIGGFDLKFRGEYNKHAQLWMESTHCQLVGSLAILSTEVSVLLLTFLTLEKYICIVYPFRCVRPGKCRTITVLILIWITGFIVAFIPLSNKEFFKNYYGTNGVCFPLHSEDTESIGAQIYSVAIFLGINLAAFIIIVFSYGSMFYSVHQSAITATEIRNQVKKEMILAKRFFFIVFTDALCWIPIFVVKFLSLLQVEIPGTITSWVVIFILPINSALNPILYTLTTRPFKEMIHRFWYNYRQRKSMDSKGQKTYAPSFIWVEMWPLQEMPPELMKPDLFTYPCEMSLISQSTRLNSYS
Procedure: Relaxin 2 signals through leucine-rich repeat-containing GPCRs (i.e. LGR7 (RFXR1)). The bioactivity of wild-type relaxin peptides was determined based on the stimulation of adenylate cyclase activity in HEK293T cells stably expressing recombinant LGR7. Stable LGR7 expressing cells were maintained in Dulbecco's modified Eagle's medium/F-12 media supplemented with […] Zeocin (Invitrogen). A cyclic AMP responsive element driven luciferase (CRE-Luc) reporter line was generated by lentiviral transduction of these LGR7 expressing HEK293T cells with CRE-Luc lentivirus (Qiagen) and selected with puromycine (2 μg/mL) for two weeks. A reporter gene assay was used to detect cAMP levels and LGR7 activation by relaxin.
Assay detail: HEK293T cells expressing LGR7 and CRE-Luc are seeded at a density of 5×10^3 cells per well in 50 μl of Dulbecco's modified Eagle's medium/F-12 medium containing 10% FBS in 384-well solid bottom white plates. Cells are pre-incubated at 37° C. for overnight. Different concentrations of relaxin peptides (from 0.01 nM to 1000 nM) were added in triplicate, incubated for 18 hours and luciferase activity was detected by adding […] of Bright Glo (Promega). Luminescence was recorded on Envision (Perkin Elmer). EC50 is calculated after non-linear curve fitting (see FIG. 3 for relaxin H2 dose response curve).

[2] = iv, i.v., read-out: Half-life (hours) i.v. (converted)
[3] = sc, s.c., read-out: Half-life (hours) s.c. (converted)

T1 sequence (Q15858 whole entry): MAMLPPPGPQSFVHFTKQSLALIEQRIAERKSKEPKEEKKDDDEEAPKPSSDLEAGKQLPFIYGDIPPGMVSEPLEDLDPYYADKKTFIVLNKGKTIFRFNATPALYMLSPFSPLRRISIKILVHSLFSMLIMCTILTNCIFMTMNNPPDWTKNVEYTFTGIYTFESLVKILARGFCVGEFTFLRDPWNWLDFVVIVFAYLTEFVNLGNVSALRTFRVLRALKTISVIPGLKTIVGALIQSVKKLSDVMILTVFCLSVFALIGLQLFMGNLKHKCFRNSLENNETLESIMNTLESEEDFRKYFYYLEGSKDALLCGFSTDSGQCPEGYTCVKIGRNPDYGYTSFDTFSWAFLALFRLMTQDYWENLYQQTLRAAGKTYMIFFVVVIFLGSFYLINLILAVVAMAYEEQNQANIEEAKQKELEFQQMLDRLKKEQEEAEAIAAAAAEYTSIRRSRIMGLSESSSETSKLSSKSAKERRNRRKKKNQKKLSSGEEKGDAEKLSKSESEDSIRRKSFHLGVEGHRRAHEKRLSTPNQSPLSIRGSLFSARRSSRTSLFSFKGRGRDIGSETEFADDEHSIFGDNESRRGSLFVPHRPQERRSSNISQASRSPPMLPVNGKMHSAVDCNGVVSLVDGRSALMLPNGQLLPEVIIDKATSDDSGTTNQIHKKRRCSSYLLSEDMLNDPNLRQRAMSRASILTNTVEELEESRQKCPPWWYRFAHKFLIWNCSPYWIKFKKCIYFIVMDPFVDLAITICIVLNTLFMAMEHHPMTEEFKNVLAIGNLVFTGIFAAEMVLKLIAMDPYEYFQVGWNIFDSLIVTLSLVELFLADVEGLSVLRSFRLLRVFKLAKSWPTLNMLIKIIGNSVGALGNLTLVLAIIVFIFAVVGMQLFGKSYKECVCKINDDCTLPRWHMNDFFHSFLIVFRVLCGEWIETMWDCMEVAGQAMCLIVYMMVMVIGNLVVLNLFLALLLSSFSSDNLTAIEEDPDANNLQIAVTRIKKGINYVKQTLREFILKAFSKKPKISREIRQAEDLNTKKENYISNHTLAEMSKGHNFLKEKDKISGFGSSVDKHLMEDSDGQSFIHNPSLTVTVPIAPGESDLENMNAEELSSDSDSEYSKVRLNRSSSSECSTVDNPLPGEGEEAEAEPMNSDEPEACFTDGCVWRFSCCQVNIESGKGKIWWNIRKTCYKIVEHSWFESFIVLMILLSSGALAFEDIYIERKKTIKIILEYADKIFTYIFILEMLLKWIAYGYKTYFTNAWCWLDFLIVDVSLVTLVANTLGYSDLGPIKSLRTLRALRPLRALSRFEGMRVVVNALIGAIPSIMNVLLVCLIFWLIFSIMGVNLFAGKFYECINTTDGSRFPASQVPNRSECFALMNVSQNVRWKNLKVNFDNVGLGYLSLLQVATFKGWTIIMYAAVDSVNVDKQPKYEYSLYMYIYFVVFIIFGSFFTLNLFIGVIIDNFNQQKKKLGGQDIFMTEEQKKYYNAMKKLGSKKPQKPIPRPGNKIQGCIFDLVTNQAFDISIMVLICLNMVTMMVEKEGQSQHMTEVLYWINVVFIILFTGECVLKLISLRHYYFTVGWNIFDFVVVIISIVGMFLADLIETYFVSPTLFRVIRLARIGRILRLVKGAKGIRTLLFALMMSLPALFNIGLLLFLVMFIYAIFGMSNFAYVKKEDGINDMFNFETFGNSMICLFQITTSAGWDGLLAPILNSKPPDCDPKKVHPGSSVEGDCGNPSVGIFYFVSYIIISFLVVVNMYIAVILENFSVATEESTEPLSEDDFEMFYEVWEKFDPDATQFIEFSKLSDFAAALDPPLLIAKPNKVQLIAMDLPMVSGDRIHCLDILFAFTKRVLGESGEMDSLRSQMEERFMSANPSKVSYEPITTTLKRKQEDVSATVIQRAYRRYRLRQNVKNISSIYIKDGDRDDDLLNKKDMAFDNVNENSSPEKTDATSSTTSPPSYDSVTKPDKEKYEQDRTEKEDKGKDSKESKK
T1 sequence (Q07699 19-218, further chain): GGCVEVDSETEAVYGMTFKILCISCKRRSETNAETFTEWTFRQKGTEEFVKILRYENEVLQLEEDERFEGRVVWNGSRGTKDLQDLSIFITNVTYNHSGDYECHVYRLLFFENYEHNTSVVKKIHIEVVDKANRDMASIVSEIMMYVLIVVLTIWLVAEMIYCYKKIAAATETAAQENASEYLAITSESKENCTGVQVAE

In the case of “550-: Toxin-550 peptide, probably SEQ ID NO: 30 (ECIGMFKSCDPENDKCCKGRTCSRKHRWCKYKL) [Entry 550-]”, the “Activity: % block at 100 nM” value (human Nav1.7) was 87% block.

CC[C@H](C)[C@@H]1NC(=O)[C@H](C)NC(=O)[C@H]([C@@H](C)CC)NC(=O)[C@H](CCC(N)=O)NC(=O)[C@H](C)NC(=O)[C@H](CCCNC(=N)N)NC(=O)[C@H](C(C)C)NC(=O)[C@H](CC(C)C)NC(=O)[C@H](CCC(=O)O)NC(=O)[C@H](CCCNC(=N)N)NC(=O)CNC(=O)[C@@H](NC(=O)[C@H](CC(C)C)NC(=O)[C@H](CCCCN)NC(=O)[C@@H](NC(=O)[C@@H](NC(=O)[C@H](CCC(=O)O)NC(=O)[C@H](CCC(=O)O)NC(=O)[C@H](CCSC)NC(=O)[C@H](Cc2c[nH]c3ccccc23)NC(=O)[C@H](CO)NC(=O)[C@H](C)N)C(C)C)[C@@H](C)CC)CSSC[C@@H]2NC(=O)[C@@H](NC(=O)[C@H](CCCCN)NC(=O)[C@H](CC(N)=O)NC(=O)[C@H](C)NC(=O)[C@H](CC(C)C)NC(=O)[C@H](C)NC(=O)[C@H](CO)NC(=O)[C@H](Cc3ccc(O)cc3)NC(=O)[C@H](CC(C)C)NC(=O)[C@@H](N)CSCC(=O)NCCOCCOCCC(=O)NCCOCCOCCC(=O)NCCCC[C@H](NC(=O)CCCCCCCCCCCCCCCCC(=O)O)C(=O)O)CSSC[C@H](NC(=O)CNC(=O)[C@H](C(C)C)NC(=O)[C@H](Cc3c[nH]cn3)NC2=O)C(=O)N[C@@H]([C@@H](C)O)C(=O)N[C@@H](CCCCN)C(=O)N[C@@H](CCCNC(=N)N)C(=O)N[C@@H](CO)C(=O)N[C@@H](CC(C)C)C(=O)N[C@@H](C)C(=O)N[C@@H](CCCNC(=N)N)C(=O)N[C@@H](Cc2ccccc2)C(=O)N[C@H](C(=O)O)CSSC[C@@H](C(=O)NCC(=O)N[C@@H](CCSC)C(=O)N[C@@H](CO)C(=O)N[C@H](C(=O)N[C@@H](Cc2c[nH]c3ccccc23)C(=O)N[C@@H](CO)C(=O)O)[C@@H](C)O)NC1=O [Relaxin-B-D1A, A-Q1C-FA2] gave a half-life [1, 2] of 3.5 h and a half-life [1, 3] of 7.8 h.

In the case of CCCCCCCCCCCCCC(=O)NCCOCCOCCNC(=O)CSC[C@H](NC(=O)[C@H](Cc1c[nH]c2ccccc12)NC(=O)[C@@H](NC(=O)[C@H](CO)NC(=O)[C@H](CCSC)NC(=O)CNC(=O)[C@@H]1CSSC[C@@H](C(=O)O)NC(=O)[C@H](Cc2ccccc2)NC(=O)[C@H](CCCNC(=N)N)NC(=O)[C@H](C)NC(=O)[C@H](CC(C)C)NC(=O)[C@H](CO)NC(=O)[C@H](CCCNC(=N)N)NC(=O)[C@H](CCCCN)NC(=O)[C@H]([C@@H](C)O)NC(=O)[C@@H]2CSSC[C@H](NC(=O)[C@H](CCCCN)NC(=O)[C@H](CC(N)=O)NC(=O)[C@H](C)NC(=O)[C@H](CC(C)C)NC(=O)[C@H](C)NC(=O)[C@H](CO)NC(=O)[C@H](Cc3ccc(O)cc3)NC(=O)[C@H](CC(C)C)NC(=O)[C@@H](N)CCC(N)=O)C(=O)N[C@@H](CSSC[C@H](NC(=O)[C@H](CC(C)C)NC(=O)[C@H](CCCCN)NC(=O)[C@@H](NC(=O)[C@@H](NC(=O)[C@H](CCC(=O)O)NC(=O)[C@H](CCC(=O)O)NC(=O)[C@H](CCSC)NC(=O)[C@H](Cc3c[nH]c4ccccc34)NC(=O)[C@H](CO)NC(=O)[C@H](C)N)C(C)C)[C@@H](C)CC)C(=O)NCC(=O)N[C@@H](CCCNC(=N)N)C(=O)N[C@@H](CCC(=O)O)C(=O)N[C@@H](CC(C)C)C(=O)N[C@@H](C(C)C)C(=O)N[C@@H](CCCNC(=N)N)C(=O)N[C@@H](C)C(=O)N[C@@H](CCC(N)=O)C(=O)N[C@@H]([C@@H](C)CC)C(=O)N[C@@H](C)C(=O)N[C@@H]([C@@H](C)CC)C(=O)N1)C(=O)N[C@@H](Cc1c[nH]cn1)C(=O)N[C@@H](C(C)C)C(=O)NCC(=O)N2)[C@@H](C)O)C(=O)O [Relaxin-B-D1AS29C-FA1], the half-life [1, 2] was 0.5 h and the half-life [1, 3] was 1.2 h.

With “550-4-GSCGG-FA1: 550-4-GSCGG (SEQ ID NO: 28) with lipid FA1 (GSCGGECIGMFKSCDPENDKCCKGRTCSRKHRWCKYKL; cysteine pairing not given here; also: lipid FA1)” the “Activity: % block at 100 nM” value (human Nav1.7) was 85% block.

CCCCCCCCCCCCCC(=O)NCCOCCOCCNC(=O)CSC[C@H](NC(=O)[C@H](Cc1c[nH]c2ccccc12)NC(=O)[C@@H](NC(=O)[C@H](CO)NC(=O)[C@H](CCSC)NC(=O)CNC(=O)[C@@H]1CSSC[C@@H](C(=O)O)NC(=O)[C@H](Cc2ccccc2)NC(=O)[C@H](CCCNC(=N)N)NC(=O)[C@H](C)NC(=O)[C@H](CC(C)C)NC(=O)[C@H](CO)NC(=O)[C@H](CCCNC(=N)N)NC(=O)[C@H](CCCCN)NC(=O)[C@H]([C@@H](C)O)NC(=O)[C@@H]2CSSC[C@H](NC(=O)[C@H](CCCCN)NC(=O)[C@H](CC(N)=O)NC(=O)[C@H](C)NC(=O)[C@H](CC(C)C)NC(=O)[C@H](C)NC(=O)[C@H](CO)NC(=O)[C@H](Cc3ccc(O)cc3)NC(=O)[C@H](CC(C)C)NC(=O)[C@@H](N)CCC(N)=O)C(=O)N[C@@H](CSSC[C@H](NC(=O)[C@H](CC(C)C)NC(=O)[C@H](CCCCN)NC(=O)[C@@H](NC(=O)[C@@H](NC(=O)[C@H](CCC(=O)O)NC(=O)[C@H](CCC(=O)O)NC(=O)[C@H](CCSC)NC(=O)[C@H](Cc3c[nH]c4ccccc34)NC(=O)[C@H](CO)NC(=O)[C@H](CC(=O)O)NC(=O)CNC(=O)CNC(=O)[C@H](CO)NC(=O)CNC(=O)[C@H](CCC(N)=O)NC(=O)[C@H](Cc3ccccc3)NC(=O)[C@H](Cc3ccc(O)cc3)NC(=O)[C@H](CC(C)C)NC(=O)[C@H](CC(N)=O)NC(=O)[C@H](CCC(=O)O)NC(=O)[C@H](Cc3c[nH]cn3)NC(=O)[C@H](Cc3c[nH]cn3)NC(=O)[C@H](Cc3c[nH]cn3)NC(=O)[C@H](Cc3c[nH]cn3)NC(=O)[C@H](Cc3c[nH]cn3)NC(=O)[C@H](Cc3c[nH]cn3)NC(=O)[C@H](Cc3c[nH]cn3)NC(=O)[C@@H](N)Cc3c[nH]cn3)C(C)C)[C@@H](C)CC)C(=O)NCC(=O)N[C@@H](CCCNC(=N)N)C(=O)N[C@@H](CCC(=O)O)C(=O)N[C@@H](CC(C)C)C(=O)N[C@@H](C(C)C)C(=O)N[C@@H](CCCNC(=N)N)C(=O)N[C@@H](C)C(=O)N[C@@H](CCC(N)=O)C(=O)N[C@@H]([C@@H](C)CC)C(=O)N[C@@H](C)C(=O)N[C@@H]([C@@H](C)CC)C(=O)N1)C(=O)N[C@@H](Cc1c[nH]cn1)C(=O)N[C@@H](C(C)C)C(=O)NCC(=O)N2)[C@@H](C)O)C(=O)O [Tev-Relaxin-B-S29C-FA1] showed a pEC50 (LGR7) of 9.00.
